In paper PMC11535475 (2024):

B1: TCR-09 (TCR)
alpha TRAV29/DV5 TRAJ43 CDR3: CAASPEYNNNDMRF
beta TRBV18 TRBJ2-3 CDR3: CASSRTLGTSGNTQYF
B2: TCR-08 (TCR)
alpha TRAV19 TRAJ33 CDR3: CALSEAVDSNYQLIW
beta TRBV7-9 TRBJ1-2 CDR3: CASSLRQGPNYGYTF
B3: TCR-37-1 (TCR)
alpha TRAV5 TRAJ5 CDR3: CAESDMDMGRRALTF
beta TRBV7-3 TRBJ2-3 CDR3: CASSRRASGIGTDTQYF
B4: TCR-03 (TCR)
alpha TRAV38-2/DV8 TRAJ30 CDR3: CAYRSVPLNRDDKIIF
beta TRBV19 TRBJ1-5 CDR3: CASSKSGTGYQPQHF
B5: TCR-10 (TCR)
alpha TRAV29/DV5 TRAJ48 CDR3: CAASDENEKLTF
beta TRBV6-6 TRBJ2-1 CDR3: CASKGGGTSGYEQFF
B6: TCR-38-1 (TCR)
alpha TRAV8-6 TRAJ29 CDR3: CAVTTDSGNTPLVF
beta TRBV11-2 TRBJ2-1 CDR3: CASSPAFGEQFF
B7: TCR-20 (TCR)
alpha TRAV13-1 TRAJ47 CDR3: CAAIQEYGNKLVF
beta TRBV5-5 TRBJ2-2 CDR3: CASSPRTLFTGELFF
B8: TCR-24 (TCR)
alpha TRAV29/DV5 TRAJ48 CDR3: CAASEAGGNEKLTF
beta TRBV15 TRBJ1-5 CDR3: CATSREQAGQPQHF
B9: TCR-33 (TCR)
alpha TRAV19 TRAJ15 CDR3: CALSEAEAGTALIF
beta TRBV6-2 TRBJ1-2 CDR3: CASSYGSVYGYTF
B10: TCR-18 (TCR)
alpha TRAV6 TRAJ45 CDR3: CALDGSGGGADGLTF
beta TRBV7-8 TRBJ1-3 CDR3: CASSPGRSGNTIYF
B11: TCR-19 (TCR)
alpha TRAV29/DV5 TRAJ30 CDR3: CAAMSMNRDDKIIF
beta TRBV4-1 TRBJ2-1 CDR3: CASSRLPGLAGGTVVNEQFF
B12: TCR-17 (TCR)
alpha TRAV29/DV5 TRAJ30 CDR3: CAARTGDDKIIF
beta TRBV10-3 TRBJ1-5 CDR3: CAINKQGFNQPQHF
B13: TCR-29-1 (TCR)
alpha TRAV3 TRAJ33 CDR3: CAVRRLMDSNYQLIW
beta TRBV7-6 TRBJ2-1 CDR3: CASSHGTSGSSHEQFF
B14: TCR-22 (TCR)
alpha TRAV19 TRAJ49 CDR3: CALSEALNTGNQFYF
beta TRBV3-1 TRBJ1-6 CDR3: CASSQVAYSPLHF
B15: TCR-34-1 (TCR)
alpha TRAV14/DV4 TRAJ6 CDR3: CAMREGSKGSYIPTF
beta TRBV28 TRBJ2-7 CDR3: CASRLNPGTVSYEQYF
B16: TCR-28 (TCR)
alpha TRAV19 TRAJ54 CDR3: CALSEAYQGAQKLVF
beta TRBV9 TRBJ2-5 CDR3: CASSVGGTVQETQYF
B17: TCR-32 (TCR)
alpha TRAV3 TRAJ8 CDR3: CAVRVYTGFQKLVF
beta TRBV9 TRBJ2-3 CDR3: CASSSNLQGADTQYF
B18: TCR-23-2 (TCR)
alpha TRAV6 TRAJ21 CDR3: CALWDFNKFYF
beta TRBV27 TRBJ2-5 CDR3: CASSPYSGGQGETQYF

target: SARS-CoV-2 N protein peptide on HLA-A*11:01 (human); experiment: activation reporter or marker

| Binder | binding result |
| --- | --- |
| B1 | recognises |
| B2 | recognises |
| B3 | recognises |
| B4 | recognises |
| B5 | recognises |
| B6 | recognises |
| B7 | recognises |
| B8 | recognises |
| B9 | recognises |
| B10 | recognises |
| B11 | recognises |
| B12 | recognises |
| B13 | recognises |
| B14 | recognises |

Target: T1, SARS-CoV-2 N protein peptide on HLA-A*11:01 (human)
T1 peptide: ATEGALNTPK
Experiment: activation reporter or marker

| Binder | binding result |
| --- | --- |
| B15 | recognises |
| B16 | recognises |
| B17 | recognises |

Target: T2, SARS-CoV-2 N protein peptide on HLA-A*11:01 (human)
T2 peptide: QQQQGQTVTK
Experiment: activation reporter or marker

| Binder | binding result |
| --- | --- |
| B18 | recognises |
